Data on one molecule can be found in paper PMC6043352 (Journal of molecular biology, 2018).

Assay [1] concerns the target T1, ubiquitin (UniProt P0CG47 1-76). Briefly: ITC. On the technique in general: In ITC the heat of successive injections is recorded.
Assay [2] addresses T1, ubiquitin. Kind of assay: NMR titration.

B1: human REV1 (932–1039) (domain or fragment, UniProt Q9UBZ9 932-1039, looked up)
chain: VPSPSQLDQSVLEALPPDLREQVEQVCAVQQAESHGDKKKEPVNGCNTGILPQPVGTVLLQIPEPQESNSDAGINLIALPAFSQVDPEVFAALPAELQRELKAAYDQR
As usually defined, the Kd is the constant that tells how readily two partners part at equilibrium. Turning to B1, the results for the Kd in assay [1] and in assay [2] were around 49 µM and around 27 µM, respectively.
